{
  "source": "paper PMC4771075",
  "origin": "cited, not measured here",
  "biological_target": "kappa opioid receptor (Rattus norvegicus) (UniProt P34975)",
  "sequence (P34975 whole entry)": "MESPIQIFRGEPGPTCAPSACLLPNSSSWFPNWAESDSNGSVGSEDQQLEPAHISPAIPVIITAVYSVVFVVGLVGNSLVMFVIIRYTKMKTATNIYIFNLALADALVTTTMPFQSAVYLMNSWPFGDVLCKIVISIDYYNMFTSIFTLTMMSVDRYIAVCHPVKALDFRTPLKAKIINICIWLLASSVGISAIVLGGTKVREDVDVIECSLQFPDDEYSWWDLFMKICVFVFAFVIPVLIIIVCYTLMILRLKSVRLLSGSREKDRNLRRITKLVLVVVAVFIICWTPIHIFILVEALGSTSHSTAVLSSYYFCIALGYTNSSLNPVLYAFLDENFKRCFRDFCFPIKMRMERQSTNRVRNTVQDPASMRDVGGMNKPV",
  "experiment": "radioligand",
  "data": [
    {"substance": "Dyn A(1-11)NH2 1-11 (from UniProt P01213)", "values": [
      {"measurement": "Ki", "result": 570, "unit": "pM"}
    ]}
  ]
}
